From article PMC3378601 (PLoS Biology, 2012)

Target: T1, Hsp42, yeast small heat shock protein (yeast, UniProt Q12329 1-375)
T1 construct: Hsp42, small heat shock protein of the yeast cytosol; also called sHsp; source: purified as described [28]; copies: 24
Assay: co-sedimentation; preassembled NM fibers (5 µM NM monomer) incubated 60 min at 25°C with Hsp26 or Hsp42 (10 µM); fibers recovered at 16,000 g for 30 min; pellet with or without a wash step, SDS-PAGE, Coomassie
Conditions: both partners purified

T1 sequence (Q12329 whole entry): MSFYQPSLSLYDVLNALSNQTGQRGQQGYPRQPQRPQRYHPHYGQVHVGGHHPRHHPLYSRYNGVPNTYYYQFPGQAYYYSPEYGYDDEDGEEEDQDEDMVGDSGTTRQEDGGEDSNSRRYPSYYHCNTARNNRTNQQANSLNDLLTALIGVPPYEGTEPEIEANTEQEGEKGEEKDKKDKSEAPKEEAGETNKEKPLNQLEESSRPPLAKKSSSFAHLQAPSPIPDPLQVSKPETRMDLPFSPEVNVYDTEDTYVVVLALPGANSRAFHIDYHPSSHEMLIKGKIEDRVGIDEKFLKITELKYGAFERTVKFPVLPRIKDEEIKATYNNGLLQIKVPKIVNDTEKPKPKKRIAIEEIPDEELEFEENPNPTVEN

B1: NM, the prion domain (N and M domains) of the yeast translation termination factor Sup35, untagged (domain or fragment, UniProt P05453 1-253, looked up)
chain: MSDSNQGNNQQNYQQYSQNGNQQQGNNRYQGYQAYNAQAQPAGGYYQNYQGYSGYQQGGYQQYNPDAGYQQQYNPQGGYQQYNPQGGYQQQFNPQGGRGNYKNFNYNNNLQGYQAGFQPQSQGMSLNDFQKQQKQAAPKPKKTLKLVSSSGIKLANATKKVGTKPAESDKKEEEKSAETKEPTKEPTKVEEPVKKEEKPVQTEEKTEEKSELPKVEDLKISESTHNTNNANVTSADALIKEQEEEVDDEVVND
notes: Sup35, yeast translation termination factor; N domain (amino acids 1-123) plus M domain (amino acids 124-253) = NM; One construct used in several states: soluble NM, molten oligomers and preassembled amyloid fibers (assembled at 25°C with agitation in assembly buffer); With Hsp26 and Hsp42 it stood as preassembled fibers; also called untagged NM; NM fibers; source: purified as described [48]
B1: binds.
